# B1: DVL3 (parent)
# chain: FCADNPSELPPPMERTGGIGDSRP
# Variants of: B1
# Test: protein stability index of a GFP-peptide fusion (GPS, HEK-293T) (PSI 1-6); higher = more stable
# Conditions: c terminus: a fixed tail appended
# 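Note: lentivirally expressed fusions sorted by FACS into six bins by GFP to DsRed ratio, PSI derived from sequencing read proportions per bin multiplied by bin number.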
row,Variant,protein stability index
1,FCADNPSNLPPPMERTGGIGDSRP [E8N],4.26
2,FCADNPSCLPPPMERTGGIGDSRP [E8C],4.06
3,FCADNPSLLPPPMERTGGIGDSRP [E8L],3.67
4,FCADNPSMLPPPMERTGGIGDSRP [E8M],3.49
5,FCADNPSHLPPPMERTGGIGDSRP [E8H],3.95
6,FCADNPSDLPPPMERTGGIGDSRP [E8D],4.39
7,FCADNPSILPPPMERTGGIGDSRP [E8I],3.88
8,FCADNPSKLPPPMERTGGIGDSRP [E8K],3.47
9,FCADNPSALPPPMERTGGIGDSRP [E8A],4.36
10,FCADNPSQLPPPMERTGGIGDSRP [E8Q],2.77
11,FCADNDSELPPPMERTGGIGDSRP [P6D],4.03
12,FCADNGSELPPPMERTGGIGDSRP [P6G],3.85
13,FCADNWSELPPPMERTGGIGDSRP [P6W],2.33
14,FCADNQSELPPPMERTGGIGDSRP [P6Q],4.95
15,FCADNISELPPPMERTGGIGDSRP [P6I],3.73
16,FCADNKSELPPPMERTGGIGDSRP [P6K],4.33
17,FCADNTSELPPPMERTGGIGDSRP [P6T],3.99
18,FCADNFSELPPPMERTGGIGDSRP [P6F],4.38
19,FCADNMSELPPPMERTGGIGDSRP [P6M],3.8
20,FCADNHSELPPPMERTGGIGDSRP [P6H],4.08
21,FCADNNSELPPPMERTGGIGDSRP [P6N],4.61
22,FCADNASELPPPMERTGGIGDSRP [P6A],4.71
23,FCADNESELPPPMERTGGIGDSRP [P6E],4.64
24,FCADNSSELPPPMERTGGIGDSRP [P6S],3.95

row,Variant,protein stability index
1,FCADNRSELPPPMERTGGIGDSRP [P6R],4.19
2,FCADNVSELPPPMERTGGIGDSRP [P6V],4.27
3,FCADNLSELPPPMERTGGIGDSRP [P6L],3.88
4,FCADNYSELPPPMERTGGIGDSRP [P6Y],4.27
5,FCADNPEELPPPMERTGGIGDSRP [S7E],5.11
6,FCADNPAELPPPMERTGGIGDSRP [S7A],4.57
7,FCADNPIELPPPMERTGGIGDSRP [S7I],4.19
8,FCADNPLELPPPMERTGGIGDSRP [S7L],4.57
9,FCADNPCELPPPMERTGGIGDSRP [S7C],3.85
10,FCADNPRELPPPMERTGGIGDSRP [S7R],3.58
11,FCADNPGELPPPMERTGGIGDSRP [S7G],4.01
12,FCADNPKELPPPMERTGGIGDSRP [S7K],4.98
13,FCADNPDELPPPMERTGGIGDSRP [S7D],5.04
14,FCADNPMELPPPMERTGGIGDSRP [S7M],4.3
15,FCADNPYELPPPMERTGGIGDSRP [S7Y],3.81
16,FCADNPTELPPPMERTGGIGDSRP [S7T],4.22
17,FCADNPVELPPPMERTGGIGDSRP [S7V],4.14
18,FCADNPFELPPPMERTGGIGDSRP [S7F],4.24
19,FCADNPNELPPPMERTGGIGDSRP [S7N],4.45
20,FCAKNPSELPPPMERTGGIGDSRP [D4K],2.85
21,FCAENPSELPPPMERTGGIGDSRP [D4E],5
22,FCAQNPSELPPPMERTGGIGDSRP [D4Q],3.36
23,FCAMNPSELPPPMERTGGIGDSRP [D4M],3.26
24,FCAGNPSELPPPMERTGGIGDSRP [D4G],4.37

row,Variant,protein stability index
1,FCAWNPSELPPPMERTGGIGDSRP [D4W],2.06
2,FCAFNPSELPPPMERTGGIGDSRP [D4F],3.08
3,FCASNPSELPPPMERTGGIGDSRP [D4S],4.25
4,FCAANPSELPPPMERTGGIGDSRP [D4A],4.19
5,FCARNPSELPPPMERTGGIGDSRP [D4R],4.36
6,FCAHNPSELPPPMERTGGIGDSRP [D4H],4.27
7,FCATNPSELPPPMERTGGIGDSRP [D4T],4.29
8,FCAINPSELPPPMERTGGIGDSRP [D4I],3.71
9,FCAVNPSELPPPMERTGGIGDSRP [D4V],3.79
10,FCANNPSELPPPMERTGGIGDSRP [D4N],3.96
11,FCAYNPSELPPPMERTGGIGDSRP [D4Y],3.98
12,FCALNPSELPPPMERTGGIGDSRP [D4L],3.83
13,FCADNPSELEPPMERTGGIGDSRP [P10E],2.94
14,FCADNPSELAPPMERTGGIGDSRP [P10A],4.29
15,FCADNPSELGPPMERTGGIGDSRP [P10G],4.13
16,FCADNPSELSPPMERTGGIGDSRP [P10S],4.38
17,FCADNPSELDPPMERTGGIGDSRP [P10D],4.81
18,FCADNPSELCPPMERTGGIGDSRP [P10C],3.81
19,FCADNPSELQPPMERTGGIGDSRP [P10Q],4.27
20,FCADNPSELWPPMERTGGIGDSRP [P10W],3.13
21,FCADNPSELIPPMERTGGIGDSRP [P10I],3.81
22,FCADNPSELKPPMERTGGIGDSRP [P10K],4.37
23,FCADNPSELTPPMERTGGIGDSRP [P10T],4.61
24,FCADNPSELHPPMERTGGIGDSRP [P10H],4.3

row,Variant,protein stability index
1,FCADNPSELNPPMERTGGIGDSRP [P10N],4.54
2,FCADNPSELMPPMERTGGIGDSRP [P10M],4.54
3,FCADNPSELLPPMERTGGIGDSRP [P10L],4.32
4,FCADNPSELFPPMERTGGIGDSRP [P10F],3.41
5,FCADNPSELVPPMERTGGIGDSRP [P10V],4.49
6,FCADNPSELRPPMERTGGIGDSRP [P10R],4.08
7,FCADHPSELPPPMERTGGIGDSRP [N5H],3.81
8,FCADGPSELPPPMERTGGIGDSRP [N5G],4.46
9,FCADIPSELPPPMERTGGIGDSRP [N5I],4.21
10,FCADTPSELPPPMERTGGIGDSRP [N5T],4.42
11,FCADVPSELPPPMERTGGIGDSRP [N5V],4.58
12,FCADKPSELPPPMERTGGIGDSRP [N5K],4.29
13,FCADAPSELPPPMERTGGIGDSRP [N5A],4.31
14,FCADEPSELPPPMERTGGIGDSRP [N5E],4.8
15,FCADMPSELPPPMERTGGIGDSRP [N5M],4.57
16,FCADFPSELPPPMERTGGIGDSRP [N5F],2.65
17,FCADDPSELPPPMERTGGIGDSRP [N5D],4.92
18,FCADYPSELPPPMERTGGIGDSRP [N5Y],3.62
19,FCADSPSELPPPMERTGGIGDSRP [N5S],4.78
20,FCADLPSELPPPMERTGGIGDSRP [N5L],3.32
21,FCADWPSELPPPMERTGGIGDSRP [N5W],3.23
22,FCADQPSELPPPMERTGGIGDSRP [N5Q],4.45

# From the supplement of paper PMC10567573
